Consider three molecules from publication PMC12052686, “NADK tetramer defective mutants affect lung cancer response to chemotherapy via controlling NADK activity” (Genes & Diseases, 2025).

Numbering of substitutions follows the chain as printed.

The target in series [1] is T1, human NADK (cNADK, full-length) (Homo sapiens, UniProt O95544, C349S).
T1 construct: full-length, modified pET28a, His tag cleaved by TEV, E. coli BL21, HisTrap / Resource Q / Superdex 200, tetramer
T1 sequence (O95544 1-446 C349S): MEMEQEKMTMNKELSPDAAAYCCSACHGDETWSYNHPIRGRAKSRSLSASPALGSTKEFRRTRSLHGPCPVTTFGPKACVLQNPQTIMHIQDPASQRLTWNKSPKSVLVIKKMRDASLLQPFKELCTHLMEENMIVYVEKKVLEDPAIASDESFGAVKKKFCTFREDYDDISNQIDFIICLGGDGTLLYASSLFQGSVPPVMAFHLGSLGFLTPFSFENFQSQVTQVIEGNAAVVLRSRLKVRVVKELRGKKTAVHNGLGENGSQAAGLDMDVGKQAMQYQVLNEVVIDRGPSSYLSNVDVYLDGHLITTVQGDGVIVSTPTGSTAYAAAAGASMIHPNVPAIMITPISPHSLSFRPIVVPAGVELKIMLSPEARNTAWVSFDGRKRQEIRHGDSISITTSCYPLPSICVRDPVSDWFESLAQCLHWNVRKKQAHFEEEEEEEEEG
The series can be described thus: isothermal titration calorimetry. It counts as binding. For orientation: ITC needs no label: the signal is the heat of the interaction.

Series [2] deals with the molecule itself. The series can be described thus: cryo-EM structure; single-particle cryo-EM of the purified, substrate-free NADK tetramer (10 mg/mL); 2.54 Å.
Series [3] concerns the molecule itself. The series can be described thus: SEC; lysates of transfected HEK293T cells with endogenous NADK knocked out, Superdex 200 Increase 10/300 GL, 0.5 mL/min; fractions analysed by immunoblotting.

Consider `NC(=O)c1ccc[n+]([C@@H]2O[C@H](COP(=O)([O-])OP(=O)(O)OC[C@H]3O[C@@H](n4cnc5c(N)ncnc54)[C@H](O)[C@@H]3O)[C@@H](O)[C@H]2O)c1` [NAD^+], for which the Kd (commonly the free concentration of one partner at which half of the binding sites on the other are occupied at equilibrium, for simple one-to-one binding) in series [1] worked out at 86.9 µM.

B1: full-length human NADK (NAD+ kinase), purified tetramer (enzyme, UniProt O95544 1-446, looked up)
chain: T1 sequence (O95544 1-446 C349S) with S349C
notes: Cloned in a modified pET28a vector; the tetramer peak of the Superdex 200 column was collected for cryo-EM; In the map the protomers are visible only from residues 98, 95, 96 and 98; also called cNADK; cytoplasmic NADK; source: E. coli BL21, purified (HisTrap FF, TEV cleavage, Resource Q, Superdex 200 Increase)
Turning to B1, the stoichiometry N (commonly a count of units in the complex or per binding partner) in series [2] turned out to be 4.

B2: N-terminal truncated NADK (95-446) (domain or fragment, human, UniProt O95544 95-446, looked up)
chain: SQRLTWNKSPKSVLVIKKMRDASLLQPFKELCTHLMEENMIVYVEKKVLEDPAIASDESFGAVKKKFCTFREDYDDISNQIDFIICLGGDGTLLYASSLFQGSVPPVMAFHLGSLGFLTPFSFENFQSQVTQVIEGNAAVVLRSRLKVRVVKELRGKKTAVHNGLGENGSQAAGLDMDVGKQAMQYQVLNEVVIDRGPSSYLSNVDVYLDGHLITTVQGDGVIVSTPTGSTAYAAAAGASMIHPNVPAIMITPICPHSLSFRPIVVPAGVELKIMLSPEARNTAWVSFDGRKRQEIRHGDSISITTSCYPLPSICVRDPVSDWFESLAQCLHWNVRKKQAHFEEEEEEEEEG
notes: also called ΔN95; N-terminal truncation mutant; source: HEK293T with endogenous NADK knocked out, transfected, in lysate
For the molecule B2, in series [3], the “stoichiometry N” value is 4.
